Patent US20140065163A1 (MERCK SERONO S A, published 2014)
Where a chain is given by its changes, count along the chain named. Numbers in names are those of the source. Like-named read-outs stand apart in the source and are kept apart here. Each block holds one binder with its values, some of them ahead of it.

How the values were obtained:
macaca GM-CSF [1] = molecular target: T1, macaca GM-CSF (Macaca mulatta (identical in Macaca …, UniProt Q0MUT8 18-144 (Chlorocebus aethiops entry), limits assumed)); assay: cell-based or functional assay
T1 chain: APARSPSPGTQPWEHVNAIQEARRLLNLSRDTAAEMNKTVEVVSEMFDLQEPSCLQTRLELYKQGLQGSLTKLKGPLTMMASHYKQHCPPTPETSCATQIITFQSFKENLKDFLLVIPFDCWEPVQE

human GM-CSF I117 [2] = molecular target: T2, human GM-CSF I117 (human, UniProt P04141 18-144); assay: cell-based or functional assay
human GM-CSF T117 [3] = molecular target: T3, human GM-CSF T117 (human, UniProt P04141 18-144); assay: cell-based or functional assay
macaca GM-CSF [4] = molecular target: T1, macaca GM-CSF; assay: cell-based or functional assay
human GM-CSF I117 [5] = molecular target: T2, human GM-CSF I117; assay: cell-based or functional assay; remark: listed apart in the source
Target sequence in this assay (P04141 18-144 limits assumed): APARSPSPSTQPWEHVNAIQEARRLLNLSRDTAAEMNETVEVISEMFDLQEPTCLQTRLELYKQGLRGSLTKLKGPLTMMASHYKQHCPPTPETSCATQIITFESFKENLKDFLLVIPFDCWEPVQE

human GM-CSF T117 [6] = molecular target: T3, human GM-CSF T117; assay: cell-based or functional assay; remark: listed apart in the source
Target sequence in this assay (P04141 18-144 I117T limits assumed): as the sequence (P04141 18-144 limits assumed) above, with I100T counted along it

macaca GM-CSF [7] = molecular target: T1, macaca GM-CSF; assay: cell-based or functional assay
human GM-CSF I117 [8] = molecular target: T2, human GM-CSF I117; assay: cell-based or functional assay; remark: listed apart in the source
human GM-CSF T117 [9] = molecular target: T3, human GM-CSF T117; assay: cell-based or functional assay; remark: listed apart in the source
macaca GM-CSF [10] = molecular target: T1, macaca GM-CSF; assay: cell-based or functional assay
human GM-CSF I117 [11] = molecular target: T2, human GM-CSF I117; assay: cell-based or functional assay; remark: listed apart in the source
human GM-CSF T117 [12] = molecular target: T3, human GM-CSF T117; assay: cell-based or functional assay; remark: listed apart in the source
human GM-CSF I117 [13] = molecular target: T2, human GM-CSF I117; assay: KinExA, affinity in solution
Experimental: (§1) The 4K21 and reference antibodies were incubated at concentration below the expected Kd with serial dilutions of human GM-CSF I117 or T117, or macaca GM-CSF up to equilibrium. The remaining free antibody was measured in a Kinetic exclusion assay with the KinExA® instrument. Kd was calculated by fitting the curve of the signal obtained versus the GM-CSF concentrations. The average of two experiments using different IgG concentrations was calculated.

human GM-CSF T117 [14] = molecular target: T3, human GM-CSF T117; assay: KinExA, affinity in solution
Experimental: as §1

macaca GM-CSF [15] = molecular target: T1, macaca GM-CSF; assay: KinExA, affinity in solution
Experimental: as §1

human GM-CSF I117 [16] = molecular target: T2, human GM-CSF I117; assay: TF-1 proliferation assay and KinExA
human GM-CSF A117 mutant = molecular target: T4, human GM-CSF A117 mutant (human, UniProt P04141 18-144); assay: competition ELISA: antibody on coated wild-type human GM-CSF, competitor soluble human GM-CSF A117; single condition, competitor concentration not shown
T4 construct: also called hGM-CSF A117; A117 protein

neutralizing the orthologs of cynomolgus and rhesus monkeys (TF-1 proliferation assay) (macaca GM-CSF [1]): < 10 fold
IC50, inhibition of GM-CSF induced TF-1 proliferation (32 pM GM-CSF) (human GM-CSF I117 [2]): 98 pM
Fold human T117/I117 (IC50, TF-1 proliferation) (human GM-CSF T117 [3]): 9.7 fold
IC50, inhibition of GM-CSF induced TF-1 proliferation (32 pM GM-CSF) (human GM-CSF T117 [3]): 947 pM
Fold macaca/human I117 (IC50, TF-1 proliferation) (macaca GM-CSF [4]): 5.7 fold
IC50, inhibition of GM-CSF induced TF-1 proliferation (32 pM GM-CSF) (macaca GM-CSF [4]): 557 pM
Fold improvement of 4K21 H93Y alone on I117 (IC50, TF-1 proliferation) (human GM-CSF I117 [5]): 0.2 fold
Fold improvement of humanized parental 4K21 on I117 (IC50, TF-1 proliferation) (human GM-CSF I117 [5]): 1 fold
IC50, inhibition of GM-CSF induced TF-1 proliferation (32 pM GM-CSF) (human GM-CSF I117 [5]): 121 pM
Fold human T117/I117 (IC50, TF-1 proliferation) (human GM-CSF T117 [6]): 11.6 fold
Fold improvement of 4K21 H93Y alone on T117 (IC50, TF-1 proliferation) (human GM-CSF T117 [6]): 0.1 fold
Fold improvement of humanized parental 4K21 on T117 (IC50, TF-1 proliferation) (human GM-CSF T117 [6]): 1 fold
IC50, inhibition of GM-CSF induced TF-1 proliferation (32 pM GM-CSF) (human GM-CSF T117 [6]): 1400 pM
Fold improvement of 4K21 H93Y alone on macaca (IC50, TF-1 proliferation) (macaca GM-CSF [7]): 0.1 fold
Fold improvement of humanized parental 4K21 on macaca (IC50, TF-1 proliferation) (macaca GM-CSF [7]): 1 fold
Fold macaca/human I117 (IC50, TF-1 proliferation) (macaca GM-CSF [7]): 6.6 fold
IC50, inhibition of GM-CSF induced TF-1 proliferation (32 pM GM-CSF) (macaca GM-CSF [7]): 793 pM
IC50, inhibition of GM-CSF induced IL-8 secretion in U937 cells (65 pM GM-CSF) (human GM-CSF I117 [8]): 170 pM
IC50, inhibition of GM-CSF induced IL-8 secretion in U937 cells (65 pM GM-CSF) (human GM-CSF T117 [9]): 930 pM
IC50, inhibition of GM-CSF induced IL-8 secretion in U937 cells (65 pM GM-CSF) (macaca GM-CSF [10]): 1120 pM
Emax (%), inhibition of CD11b upregulation on neutrophils after GM-CSF stimulation (human GM-CSF I117 [11]): 65%
IC50, inhibition of CD11b upregulation on neutrophils after GM-CSF stimulation (human GM-CSF I117 [11]): 3060 pM
Emax (%), inhibition of CD11b upregulation on neutrophils after GM-CSF stimulation (human GM-CSF T117 [12]): 68%
IC50, inhibition of CD11b upregulation on neutrophils after GM-CSF stimulation (human GM-CSF T117 [12]): 31600 pM
Kd (human GM-CSF I117 [13]): 21 pM
Kd (human GM-CSF T117 [14]): 164 pM
Kd (macaca GM-CSF [15]): 63 pM
fold preference for GM-CSF I117 versus T117 (human GM-CSF I117 [16]): > 10 fold
B1: humanized parental anti-GM-CSF 4K21 VH3-07.1AL+VK2-A3.2 hIgG1K antibody (MSB0010439) (antibody, V domains shown)
VH: EVQLVESGGGLVQPGGSLRLSCAASGFAFSAYDMSWVRQAPGKRLELVAYISSGGSSFYYPDTVKGRFTISRDNAKNSLYLQMNSLRAEDTAVYYCTRHLGFDYWGQGTLVTVSS
VL: DIVMTQSPLSLPVTPGEPASISCRSSQSLVNSNGNTYLHWYLQKPGQSPQLLIYKVSNRFSGVPDRFSGSGSGTDFTLKISRVEAEDVGVYYCSQSTHVPPTFGQGTKVEIK
notes: Human IgG1 kappa; also called humanized parental 4K21 hVH hVL; parental 4K21

Fold improvement of 4K21 H93Y alone on I117 (IC50, TF-1 proliferation) (human GM-CSF I117 [5]): 1.3 fold
Fold improvement of humanized parental 4K21 on I117 (IC50, TF-1 proliferation) (human GM-CSF I117 [5]): 5.3 fold
IC50, inhibition of GM-CSF induced TF-1 proliferation (32 pM GM-CSF) (human GM-CSF I117 [5]): 23 pM
Fold human T117/I117 (IC50, TF-1 proliferation) (human GM-CSF T117 [6]): 0.9 fold
Fold improvement of 4K21 H93Y alone on T117 (IC50, TF-1 proliferation) (human GM-CSF T117 [6]): 8.3 fold
Fold improvement of humanized parental 4K21 on T117 (IC50, TF-1 proliferation) (human GM-CSF T117 [6]): 68 fold
IC50, inhibition of GM-CSF induced TF-1 proliferation (32 pM GM-CSF) (human GM-CSF T117 [6]): 21 pM
Fold improvement of 4K21 H93Y alone on macaca (IC50, TF-1 proliferation) (macaca GM-CSF [7]): 1.8 fold
Fold improvement of humanized parental 4K21 on macaca (IC50, TF-1 proliferation) (macaca GM-CSF [7]): 15 fold
Fold macaca/human I117 (IC50, TF-1 proliferation) (macaca GM-CSF [7]): 2.3 fold
IC50, inhibition of GM-CSF induced TF-1 proliferation (32 pM GM-CSF) (macaca GM-CSF [7]): 53 pM
IC50, inhibition of GM-CSF induced IL-8 secretion in U937 cells (65 pM GM-CSF) (human GM-CSF I117 [8]): 334 pM
IC50, inhibition of GM-CSF induced IL-8 secretion in U937 cells (65 pM GM-CSF) (human GM-CSF T117 [9]): 263 pM
IC50, inhibition of GM-CSF induced IL-8 secretion in U937 cells (65 pM GM-CSF) (macaca GM-CSF [10]): 340 pM
Emax (%), inhibition of CD11b upregulation on neutrophils after GM-CSF stimulation (human GM-CSF I117 [11]): 79%
IC50, inhibition of CD11b upregulation on neutrophils after GM-CSF stimulation (human GM-CSF I117 [11]): 1410 pM
Emax (%), inhibition of CD11b upregulation on neutrophils after GM-CSF stimulation (human GM-CSF T117 [12]): 97%
IC50, inhibition of CD11b upregulation on neutrophils after GM-CSF stimulation (human GM-CSF T117 [12]): 2030 pM
Kd (human GM-CSF I117 [13]): 6 pM
Kd (human GM-CSF T117 [14]): 5 pM
Kd (macaca GM-CSF [15]): 12 pM
binding result (human GM-CSF A117 mutant): binds
B2: MSB0010601 4K21 (4K21 hVH S55K-T62S hVL N28I-H34S-N53R-H93Y) (antibody, V domains shown)
VH: B1 VH with S56K, T63S
VL: B1 VL with N33I, H39S, N58R, H98Y
notes: IgG; also called optimized 4K21 antibody
